Here are results for one molecule from patent US20190077860A1 (EISAI R AND D MANAGEMENT, published 2019).

Broadly, the IC50 is the concentration that inhibits the measured activity by half. Broadly, the EC50 (read off the curve) is the concentration that produces a half-maximal response. For orientation: Kd means the concentration at which binding is half-saturated. As a reminder, the koff is a measure of how fast the partners let go of each other. As a reminder, the kon is a measure of how fast the partners come together.

Assay [1] concerns the target T1, mouse EphA4 extracellular region-SEAP-His protein (mouse). Briefly: competition ELISA, competitor biotinylated mouse Ephrin B2-Fc; alternative value in brackets. The procedure: Antibody A-Fab and antibody A-F(ab′)₂ obtained in Example 5 were evaluated for their inhibitory activity against the binding between EphA4 and its ligand according to the following steps. Each well of a 96-well plate (Nunc) was coated with an anti-alkaline phosphatase antibody (Thermo Fisher Scientific). After incubation overnight at 4° C., each well was blocked with 1% BlockAce (DS Pharma Biomedical) at room temperature for 1 hour. After washing with 0.05% Tween 20/PBS (Thermo Fisher Scientific) three times, the mouse EphA4 extracellular region-SEAP-His protein obtained by the method of Example 1 was added (final concentration: 10 nM) to each well and incubated at room temperature for 1 hour. After washing three times, a ligand and serially diluted antibody A (0, 0.003, 0.01, 0.03, 0.1, 0.3, 1, 3, 10, 30, 100, 300, 1000, and 3000 nM), antibody A-Fab (0, 0.003, 0.01, 0.03, 0.1, 0.3, 1, 3, 10, 30, 100, 300, 1000, and 3000 nM), antibody A-F(ab′)₂ (0, 0.003, 0.01, 0.03, 0.1, 0.3, 1, 3, 10, 30, 100, 300, 1000, and 3000 nM), or the EphA4 inhibitor KYL peptide ([…], 0, 0.0003, 0.001, 0.003, 0.01, 0.03, 0.1, 0.3, 1, 3, 10, 30, 100, 300, 1000, and 3000 μM, its synthesis was outsourced to Toray Research Center) were added to each well. […] The absorbance at 450 nm was read using a microplate reader (Molecular Devices or PerkinElmer). […]

Assay [2] has as its target T2, mouse EphA4 extracellular region-Fc-His protein (mouse; human, UniProt Q03137 20-547).
T2 construct: used as culture supernatant
As to the kind of experiment: ELISA, EphA4 extracellular region-Fc-His (1 nM) captured on the plate, antibody A titrated, HRP anti-mouse IgG detection, OD 450 nm. The procedure:
(§1) Each well of a 96-well plate (Nunc) was coated with a […] (Jackson ImmunoResearch Laboratories). After incubation overnight at 4° C., each well was blocked with 1% BlockAce (Sumitomo Dainippon Pharma) at room temperature for 1 hour. After washing with 0.05% Tween 20/PBS (Nacalai Tesque) three times, the mouse, rat, monkey, or human EphA4 extracellular region-Fc-His protein was disseminated (final concentration: 1 nM) to each well and incubated at room temperature for 1 hour. After washing three times, a human IgG solution (100 μg/mL, Mitsubishi Pharma) and antibody A (0, 0.00128, 0.0064, 0.032, 0.16, 0.8, 4, and 20 μg/mL) were added to each well and incubated at room temperature for 1 hour. A horseradish peroxidase-labeled donkey anti-mouse IgG antibody (Jackson ImmunoResearch Laboratories) was added thereto and incubated at room temperature for 1 hour. After washing three times, a TMBZ (3,3′,5,5′-tetramethylbenzidine, Sigma-Aldrich) solution was added to each well. After confirmation of moderate color development, an equal amount of a reaction stopping solution (1N H₂SO₄, Wako Pure Chemical Industries) was added to each well. The absorbance at 450 nm was read using a microplate reader (PerkinElmer).
(In general: An ELISA detects its analyte on a solid surface through an enzyme-linked reagent.)

The target of assay [3] is T3, human EphA4 extracellular region-Fc-His protein (human, UniProt P54764 20-547).
T3 construct: used as culture supernatant
T3 sequence (P54764 20-547): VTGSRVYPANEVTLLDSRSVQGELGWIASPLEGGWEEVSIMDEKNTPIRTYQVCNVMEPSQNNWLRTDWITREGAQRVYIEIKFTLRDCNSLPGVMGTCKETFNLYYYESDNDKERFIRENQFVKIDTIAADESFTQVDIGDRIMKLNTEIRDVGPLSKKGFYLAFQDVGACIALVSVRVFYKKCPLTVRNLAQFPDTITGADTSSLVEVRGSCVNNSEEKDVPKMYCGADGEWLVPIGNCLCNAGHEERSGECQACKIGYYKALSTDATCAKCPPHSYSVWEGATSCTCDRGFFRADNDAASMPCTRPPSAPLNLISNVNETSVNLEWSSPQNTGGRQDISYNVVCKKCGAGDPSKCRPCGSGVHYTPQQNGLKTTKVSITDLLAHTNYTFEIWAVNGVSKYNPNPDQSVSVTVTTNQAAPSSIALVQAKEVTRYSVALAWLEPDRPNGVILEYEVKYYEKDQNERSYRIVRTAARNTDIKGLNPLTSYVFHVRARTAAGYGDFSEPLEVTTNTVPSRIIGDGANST
The assay is described as above. On the procedure:
as §1

Assay [4] concerns the target T4, monkey EphA4 extracellular region-Fc-His protein (monkey; human).
T4 construct: used as culture supernatant
The assay is described as above. The procedure:
as §1

Assay [5] addresses rat EphA4 in rat hippocampal neurons (rat, UniProt D3ZZK3 20-986). Briefly: cell-based or functional assay.
In assay [6] the target is T1, mouse EphA4 extracellular …. Briefly: SPR (Biacore T200), mouse EphA4 extracellular region-SEAP-His captured on an anti-His antibody CM5 chip, antibody as analyte at 0.6-50 nM, 1:1 fit (run alongside F(ab')2). On the procedure:
Next, the binding affinity of antibody A-Fab and antibody A-F(ab′)₂ for mouse and human EphA4 was determined by surface plasmon resonance (SPR) using Biacore T200 (GE Healthcare). Antibody A obtained in Example 1 was used as a control for the comparison of each fragment. First, an anti-His tag antibody was immobilized on sensor chip CM5. The immobilization of the anti-His tag antibody on sensor chip CM5 was performed by the amine coupling method using N-hydroxysuccinimide (NHS) and N-ethyl-N′-(3-dimethylaminopropyl)carbodiimide hydrochloride (EDC). Ethanolamine was used in blocking (the sensor chip and the reagents for immobilization were all manufactured by GE Healthcare). The antibody was diluted with a buffer solution for immobilization (10 mM sodium acetate, pH 4.5) into 3 μg/mL and immobilized on the sensor chip according to the protocol attached to Biacore T200.
Mouse or human EphA4 extracellular region-SEAP-His protein was diluted with a running buffer solution HBS-EP (GE Healthcare, BR-1001-88), injected onto a flow cell for 120 seconds, and captured (amount of the protein captured: approximately 10 to 20 RU). Subsequently, antibody A (50, 16.7, 5.6, 1.9, 0.6, and 0 nM), antibody A-Fab (500, 166.7, 55.6, 18.5, 6.2, and 0 nM), or antibody A-F(ab′)₂ (50, 16.7, 5.6, 1.9, 0.6, and 0 nM) serially diluted using HBS-EP was added to the sensor chip for 120 seconds. Binding reaction curves were sequentially observed at the time of the addition (association phase, for 120 sec) and after the completion of the addition (dissociation phase, for 900 sec). After the completion of each observation, the sensor chip was regenerated by the addition of 3 M MgCl₂ (Wako Pure Chemical Industries) (for 30 sec). The obtained binding reaction curves were subjected to fitting analysis with 1:1 binding models using software BIA evaluation attached to the system to calculate the binding affinity (KD=kd/ka) for mouse and human EphA4.
(In general: In SPR one partner is held on a chip, and binding of the other changes the refractive index at the surface.)

T1 sequence (chain, as listed by the source limits assumed): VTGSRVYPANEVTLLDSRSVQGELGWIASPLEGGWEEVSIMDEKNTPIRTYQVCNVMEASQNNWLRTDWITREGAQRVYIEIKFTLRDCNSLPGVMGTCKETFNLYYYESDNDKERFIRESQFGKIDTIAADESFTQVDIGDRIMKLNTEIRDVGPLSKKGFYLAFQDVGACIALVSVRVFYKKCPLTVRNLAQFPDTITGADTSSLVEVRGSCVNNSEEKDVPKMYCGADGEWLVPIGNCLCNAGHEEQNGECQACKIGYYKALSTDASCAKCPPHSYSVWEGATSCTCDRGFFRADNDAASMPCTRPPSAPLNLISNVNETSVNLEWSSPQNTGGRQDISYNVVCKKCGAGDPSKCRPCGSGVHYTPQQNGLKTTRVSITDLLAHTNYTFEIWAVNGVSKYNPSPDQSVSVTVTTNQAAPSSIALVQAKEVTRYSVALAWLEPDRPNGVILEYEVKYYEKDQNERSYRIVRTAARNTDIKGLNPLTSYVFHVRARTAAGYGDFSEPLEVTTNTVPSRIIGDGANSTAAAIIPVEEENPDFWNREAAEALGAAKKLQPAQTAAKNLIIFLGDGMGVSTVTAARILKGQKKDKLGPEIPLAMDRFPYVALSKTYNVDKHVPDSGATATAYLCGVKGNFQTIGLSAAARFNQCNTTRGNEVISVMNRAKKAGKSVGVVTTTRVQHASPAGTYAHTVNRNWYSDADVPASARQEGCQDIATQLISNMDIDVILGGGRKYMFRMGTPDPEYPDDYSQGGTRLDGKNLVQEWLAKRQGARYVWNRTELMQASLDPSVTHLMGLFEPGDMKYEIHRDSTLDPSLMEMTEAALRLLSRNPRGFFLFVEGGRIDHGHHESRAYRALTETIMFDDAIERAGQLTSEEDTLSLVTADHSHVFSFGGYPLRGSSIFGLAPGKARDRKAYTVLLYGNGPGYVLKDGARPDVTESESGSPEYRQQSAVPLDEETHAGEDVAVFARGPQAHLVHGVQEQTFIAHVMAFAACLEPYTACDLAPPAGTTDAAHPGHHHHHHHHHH
T4 sequence (chain, as listed by the source): as the sequence (P54764 20-547) above, with N406S counted along it
T2 sequence (Q03137 20-547): as the sequence (P54764 20-547) above, with P59A, N121S, V124G, R250Q, S251N, T270S, K378R, N406S counted along it

B1: antibody A (antibody, mouse IgG1, kappa, V domains shown)
VH: QIQLVQSGPELKKPGETVKISCKASGYTFTDYSMHWVKQAPGKGLKWMGWINTETGEPTYADDFKGRFAFSLETSASTAYLQINNLKNEDTATYFCARIPLYYYGSRYWYFDVWGAGTTVTVSS
VL: DIQMTQSPASLSVSVGETVTITCRASENIYRNLAWYQQKQGKSPQLLVYAATNLADGVPSRFSGSGSGTQYSLKINSLQSEDFGSYYCQHFWGTPWTFGGGTKLEIKR
notes: mouse IgG1 heavy chain, kappa light chain; purified from hybridoma supernatant; also called anti-EphA4 monoclonal antibody; antibody A-IgG
B1 registered an IC50 in assay [1] of 3.6 nM. Further, the “EC50 (read off the curve)” value in assay [2], in assay [3] and in assay [4] was about 0.1 nM throughout. Moreover, the “IC50 of suppression of EphA4 autophosphorylation induced by mouse EphrinA1 in the hippocampal neurons” value in assay [5] was 24.2 nM. For the same molecule, the Kd in assay [6] turned out to be 0.0423 nM. Also, the koff in assay [6] turned out to be 0.000288 s⁻¹. The kon in assay [6] turned out to be 6.81e+06 M⁻¹ s⁻¹.
